Assay results as given in patent US7919526B2, “Structured triglycerides and emulsions comprising same” (HTL High-Tech Lipids Ltd., priority 2005, dated 2011).

B1: Mucor miehei: lipase of Mucor miehei origin (Sigma), crude or immobilized (protein, UniProt P19515 95-363, looked up)
Lipase: SIDGGIRAATSQEINELTYYTTLSANSYCRTVIPGATWDCIHCDATEDLKIIKTWSTLIYDTNAMVARGDSEKTIYIVFRGSSSIRNWIADLTFVPVSYPPVSGTKVHKGFLDSYGEVQNELVATVLDQFKQYPSYKVAVTGHSLGGATALLCALDLYQREEGLSSSNLFLYTQGQPRVGDPAFANYVVSTGIPYRRTVNERDIVPHLPPAAFGFLHAGEEYWITDNSPETVQVCTSDLETSDCSNSIVPFTSVLDHLSYFGINTGLCT
modifications: crude or immobilized
B2: Rhizomucor miehei: lipase of Rhizomucor miehei origin (Sigma), crude or immobilized (protein, UniProt P19515 95-363, looked up)
Lipase: B1 Lipase
modifications: crude or immobilized
B3: Porcine pancreas lipase: lipase from porcine pancreas (Sigma), crude or immobilized (protein, UniProt P00591 1-450, looked up)
Pancreatic triacylglycerol …: SEVCFPRLGCFSDDAPWAGIVQRPLKILPWSPKDVDTRFLLYTNQNQNNYQELVADPSTITNSNFRMDRKTRFIIHGFIDKGEEDWLSNICKNLFKVESVNCICVDWKGGSRTGYTQASQNIRIVGAEVAYFVEVLKSSLGYSPSNVHVIGHSLGSHAAGEAGRRTNGTIERITGLDPAEPCFQGTPELVRLDPSDAKFVDVIHTDAAPIIPNLGFGMSQTVGHLDFFPNGGKQMPGCQKNILSQIVDIDGIWEGTRDFVACNHLRSYKYYADSILNPDGFAGFPCDSYNVFTANKCFPCPSEGCPQMGHYADRFPGKTNGVSQVFYLNTGDASNFARWRYKVSVTLSGKKVTGHILVSLFGNEGNSRQYEIYKGTLQPDNTHSDEFDSDVEVGDLQKVKFIWYNNNVINPTLPRVGASKITVERNDGKVYDFCSQETVREEVLLTLNPC
modifications: crude or immobilized

Columns and labels:
Type in all cases: biochemical
[1] = acidolysis activity of lipases using MCT and palmitic acid; details: MCT (1 gr), palmitic acid (0.51 gr), 500 mg enzyme preparation, 50° C., solvent-free
Protocol: (§1) The acidolysis activity of crude enzymes and enzymes adapted for synthetic reactions was assayed by adding an enzyme preparation (500 mg) into a 10 ml reaction solution containing MCT and a free fatty acid where the molar ratio between both substrates was 1:1. […] Samples (0.1 ml) were taken from the reaction mixture and mixed with 10 ml solvent comprised of acetone-dichloromethane at a ratio of 90:10. The samples were filtered through a Millipore filter (pore size 0.45 μm) and then injected to the HPLC.
(§2) The reaction progress was followed by analyzing the triglyceride composition in the reaction medium before and after the enzymatic reaction using an HPLC equipped with an ELSD (Evaporative light Scattering Detector). The HPLC was equipped with a LiChrosorb CH-18 Super (250×4 mm, 5 μm, MERCK). The HPLC running conditions were as follows: mobile phase A, Acetonitrile/Dichloromethane/Acetone (80/15/5); mobile phase B: […] (20/60/20). The flow rate was 1 ml/min and the gradient was 0 to 100% B for 30 min.
(§3) The substrate conversion was calculated as follows: Conversion %=100×(Sum of area of the 4 peaks representing the MCT at time zero)−([…])per Sum of area of the 4 peaks representing the MCT at time zero. The MCT conversion (%) was used as an indicative parameter for the efficiency of enzyme activity to obtain the desired product. Results
(§4) Tables 1-12 show the acidolysis activity of various lipases, which were screened for their ability to catalyze the reaction between MCT and free fatty acids in a solvent-free system according to the enzymatically catalyzed reaction presented in FIG. 1. All lipases were used in their crude form as supplied by the manufacturer (Sigma) or immobilized on an insoluble matrix. Immobilized lipases were activated before their use in the acidolysis reaction containing MCT and a long-chain fatty acid by pretreatment with a biphase system containing 50% triglyceride oil such as olive oil, soy oil and the like and 50% water. This pretreatment lead to the activation of the immobilized enzymes for synthetic applications. […]

[2] = acidolysis activity of lipases using MCT and stearic acid; details: MCT (1 gr), stearic acid (0.56 gr), 500 mg enzyme preparation, 50° C., solvent-free
Protocol: (§8) The acidolysis activity of crude enzymes and enzymes adapted for synthetic reactions was assayed by adding an enzyme preparation (500 mg) into a 10 ml reaction solution containing MCT and a free fatty acid where the molar ratio between both substrates was 1:1. The reaction mixture was shaken for 16 hours at a temperature of 50° C. Samples (0.1 ml) were taken from the reaction mixture and mixed with 10 ml solvent comprised of acetone-dichloromethane at a ratio of 90:10. The samples were filtered through a Millipore filter (pore size 0.45 μm) and then injected to the HPLC.
(§9) The reaction progress was followed by analyzing the triglyceride composition in the reaction medium before and after the enzymatic reaction using an HPLC equipped with an ELSD (Evaporative light Scattering Detector). The HPLC was equipped with a LiChrosorb CH-18 Super (250×4 mm, 5 μm, MERCK). The HPLC running conditions were as follows: mobile phase A, Acetonitrile/Dichloromethane/Acetone (80/15/5); mobile phase B: Acetone/Dichloromethane/Acetone (20/60/20). The flow rate was 1 ml/min and the gradient was 0 to 100% B for 30 min.
(§10) The substrate conversion was calculated as follows: Conversion %=100×(Sum of area of the 4 peaks representing the MCT at time zero)−(Sum of area of the 4 peaks representing the MCT after 16 h reaction time)per Sum of area of the 4 peaks representing the MCT at time zero. The MCT conversion (%) was used as an indicative parameter for the efficiency of enzyme activity to obtain the desired product.
All lipases were used in their crude form as supplied by the manufacturer (Sigma) or immobilized on an insoluble matrix. Immobilized lipases were activated before their use in the acidolysis reaction containing MCT and a long-chain fatty acid by pretreatment with a biphase system containing 50% triglyceride oil such as olive oil, soy oil and the like and 50% water. […]

[3] = acidolysis activity of lipases using MCT and lauric acid; details: MCT (1 gr), lauric acid (0.4 gr), 500 mg enzyme preparation, 50° C., solvent-free
Protocol: as §8, §9, §10
Reaction conditions as described in Table 1, with one modification, namely lauric acid (0.4 gr) was used as the fatty acid.

[4] = acidolysis activity of lipases using MCT and caprylic acid; details: for Conversion % (24 h): MCT (1 gr), caprylic acid (0.28 gr), 500 mg enzyme preparation, 50° C., solvent-free; for acidolysis activity in words, Caprylic acid and MCT: summary of Table 2
Protocol: as §1, §2, §3
(§5) Tables 1-12 show the acidolysis activity of various lipases, which were screened for their ability to catalyze the reaction between MCT and free fatty acids in a solvent-free system according to the enzymatically catalyzed reaction presented in FIG. 1. All lipases were used in their crude form as supplied by the manufacturer (Sigma) or immobilized on an insoluble matrix. Immobilized lipases were activated before their use in the acidolysis reaction containing MCT and a long-chain fatty acid by pretreatment with a biphase system containing 50% triglyceride oil such as olive oil, soy oil and the like and 50% water. This pretreatment lead to the activation of the immobilized enzymes for synthetic applications.
(§6) A typical enzyme activation and immobilization procedure used in this example is as follows: 1 g of a crude lipase preparation was dissolved in a 1 L of phosphate buffer solution of an appropriate pH according to the recommendation of the enzyme's manufacturer. 10 g of support matrix (silica, celite, an ion-exchange resin such as DUOLITE® A56, DUOLITE® A7, DUOLITE® XAD761, or Amberlite™ XAD16) were added into the stirred enzyme solution. The slurry was shaken for 8 hours at a temperature of 10° C. Hundred ml of cold acetone was optionally added into the stirred slurry in order to enhance the enzyme immobilization on the matrix surface. The immobilized enzyme was filtered of from the mixture and then freeze-dried or used wet for the following step. One g of freeze-dried immobilized lipase (water content of less than 2 weight %) or wet immobilized lipase (water content of approx. 20%) was added into a biphase system comprised of 5 g olive oil and 2 g buffer solution of pH7 at room temperature. The mixture was stirred for 10 min. The immobilized lipases was filtered of from the mixture, washed with cold acetone, dried in a desiccator and then used for the acidolysis reaction between MCT and a fatty acyl donor.
(§7) Reaction conditions: MCT (1 gr), caproic acid (0.23 gr), and 500 mg enzyme preparation. The reaction mixture was shaken and thermostated at 50° C. for 16 h. […]

[5] = acidolysis activity of lipases using MCT and linoleic acid; details: MCT (1 gr), linoleic acid (0.55 gr), 500 mg enzyme preparation, 50° C., solvent-free
Protocol: as §1, §2, §3, §4

[6] = acidolysis activity of lipases using MCT and oleic acid; details: MCT (1 gr), oleic acid (0.56 gr), 500 mg enzyme preparation, 50° C., solvent-free
Protocol: as §8, §9, §10

[7] = acidolysis activity of lipases using MCT and alpha-linolenic acid; details: MCT (1 gr), alpha-linolenic acid (0.55 gr), 500 mg enzyme preparation, 50° C., solvent-free
Protocol: as §8, §9, §10

[8] = acidolysis activity of lipases using MCT and caproic acid; details: for Conversion % (24 h): MCT (1 gr), caproic acid (0.23 gr), 500 mg enzyme preparation, 50° C., solvent-free; for acidolysis activity in words, Caproic acid and MCT: summary of Table 1
Protocol: as §8, §9, §10

[9] = acidolysis activity of lipases using MCT and capric acid; details: MCT (1 gr), capric acid (0.34 gr), 500 mg enzyme preparation, 50° C., solvent-free
Protocol: as §1, §2, §3, §4

[10] = acidolysis activity of lipases using MCT and arachidonic acid; details: for Conversion % (24 h): MCT (1 gr), arachidonic acid (0.6 gr), 500 mg enzyme preparation, 50° C., solvent-free
Protocol: as §1, §2, §3, §5
A typical enzyme activation and immobilization procedure used in this example is as follows: 1 g of a crude lipase preparation was dissolved in a 1 L of phosphate buffer solution of an appropriate pH according to the recommendation of the enzyme's manufacturer. 10 g of support matrix (silica, celite, an ion-exchange resin such as DUOLITE® A56, DUOLITE® A7, DUOLITE® XAD761, or Amberlite™ XAD16) were added into the stirred enzyme solution. The slurry was shaken for 8 hours at a temperature of 10° C. Hundred ml of cold acetone was optionally added into the stirred slurry in order to enhance the enzyme immobilization on the matrix surface. […]

[11] = acidolysis activity of lipases using MCT and DHA; details: MCT (1 gr), DHA (0.65 gr), 500 mg enzyme preparation, 50° C., solvent-free
Protocol: as §1, §2, §3, §4

[12] = acidolysis activity of lipases using MCT and EPA; details: for Conversion % (24 h): MCT (1 gr), EPA (0.6 gr), 500 mg enzyme preparation, 50° C., solvent-free; for efficiency of incorporation of EPA into MCT, in words: summary of Table 11
Protocol: as §1, §2, §3, §5, §6, §7

Molecule	Conversion % [1] [%]	Conversion % (24 h) [2] [%]	Conversion % (24 h) [3] [%]	Conversion % (24 h) [4] [%]	acidolysis activity in words, Caprylic acid and MCT [4]	Conversion % [5] [%]	Conversion % (24 h) [6] [%]	Conversion % (24 h) [7] [%]	Conversion % (24 h) [8] [%]	acidolysis activity in words, Caproic acid and MCT [8]	Conversion % [9] [%]	Conversion % (24 h) [10] [%]	Conversion % (24 h) [11] [%]	Conversion % (24 h) [12] [%]	efficiency of incorporation of EPA into MCT, in words [12]	efficiency of incorporation of ARA into MCT, in words ([10]; summary of Table 10)
B1	41	42	38	42	reasonable acidolysis activity	41	40	31	35	preferred sources	39	3	27	25	the most efficient enzymes	–
B2	33	37	39	37	reasonable acidolysis activity	35	43	39	31	preferred sources	37	15	16	30	the most efficient enzymes	among the most efficient enzymes
B3	1	5	6	5	–	5	4	6	6	–	5	2	5	3	–	–
